In general, Kd refers to the concentration at which binding is half-saturated. A low value points to a tighter complex. One may read the EC50 as the concentration at which the effect is half-maximal. A low value points to an effect from little substance. For orientation: IC50 means the midpoint of a concentration-inhibition curve. Broadly, the koff is the rate constant with which the complex falls apart. Lower therefore signals slow dissociation. By kon is commonly meant the rate constant with which the complex forms. Low values mean slower complex formation, high ones faster complex formation.

Four molecules from US20210363257A1 (Pieris, published 2021) can be followed below.

Test [1] concerns the target T1, human CD137 expressed on cells (human, UniProt Q07011 24-255). Kind of test: cell-based or functional assay.
Test [2] concerns the target T2, huCD137-His (human CD137 with a C-terminal polyhistidine tag) (human, UniProt Q07011 24-186).
T2 construct: Bought; also called huCD137-His-Bio
As to the kind of experiment: SPR (Biacore), binder captured by anti-human IgG Fc, huCD137-His in solution, 25 C, 1:1 model. On the procedure:
(§1) The binding kinetics and affinity of exemplary fusion proteins to huPD-L1-His or huCD137-His (human PD-L1 or human CD137 with a C-terminal polyhistidine tag, R&D Systems) were determined by surface plasmon resonance (SPR) using a Biacore 8K or a Biacore T200 (GE Healthcare).
(§2) The anti-human IgG Fc antibody (GE Healthcare) was immobilized on a CM5 sensor chip using standard amine chemistry: the carboxyl groups on the chip were activated using 1-ethyl-3-(3-dimethylaminopropyl)-carbodiimide (EDC) and N-hydroxysuccinimide (NHS). Subsequently, anti-human IgG Fc antibody solution (GE Healthcare) at a concentration of 25 μg/mL in 10 mM sodium acetate (pH 5.0) was applied at a flow rate of 5 μL/min until an immobilization level of 6000-10000 resonance units (RU) was achieved. Residual non-reacted NHS-esters were blocked by passing a solution of 1M ethanolamine across the surface. The reference channel was treated in an analogous manner. […] After each capture step, the needle was washed.
(§3) Double referencing was used and the 1:1 binding model was used to fit the raw data.
(Surface plasmon resonance follows binding to a sensor surface in real time, without labels.)

For test [3], the target named is T1, human CD137 expressed on cells. As to the kind of experiment: flow cytometry, Flp-In-CHO::huCD137 cells. On the procedure: (§4) The geometric means of the fluorescence intensity were used to calculate EC₅₀ values using nonlinear regression (shared bottom, SLOPE=1).
(§5) 5×10⁴ cells per well were incubated for 1 h in ice-cold PBS containing 5% fetal calf serum (PBS-FCS). A dilution series of the fusion proteins and control antibodies were added to the cells and incubated for 1 h on ice. Cells were washed twice with PBS and then incubated with a goat anti-hIgG Alexa647-labeled antibody for 30 min on ice. Cells were subsequently washed and analyzed using iQue Flow cytometer (Intellicyte Screener). Mean geometric fluorescent signals were plotted and fitted with Graphpad software using nonlinear regression (shared bottom, SLOPE=1).

Test [4] addresses T3, human PD-L1 expressed on cells (human, UniProt Q9NZQ7 19-290).
T3 construct: whole, on cells; also called Flp-In-CHO::huPDL-1; RKO cells
Kind of test: flow cytometry, Flp-In-CHO::huPDL-1 cells. As for the experimental part: as §4, §5

In test [5] the target is T3, human PD-L1 expressed on cells. As to the kind of experiment: flow cytometry, RKO tumor cells (PD-L1-positive). As for the experimental part: as §5
For flow cytometric analysis, RKO cells were incubated with fusion proteins and detected using a fluorescently labeled anti-human IgG antibody as described in Example 6.
In general terms: In flow cytometry, cells or beads pass a laser one at a time.

The target in test [6] is T4, cynomolgus PD-L1 expressed on cells (cynomolgus).
T4 construct: whole, on cells; also called Flp-In-CHO::cynoPDL-1
As to the kind of experiment: flow cytometry, Flp-In-CHO::cynoPDL-1 cells. On the procedure:
as §4, §5

The target of test [7] is T5, huPD-L1-Fc (recombinant human PD-L1 Fc fusion) (human, UniProt Q9NZQ7 19-239).
T5 construct: Bought; also called tracer huPD-L1-Fc
T5 sequence (Q9NZQ7 19-239 limits assumed): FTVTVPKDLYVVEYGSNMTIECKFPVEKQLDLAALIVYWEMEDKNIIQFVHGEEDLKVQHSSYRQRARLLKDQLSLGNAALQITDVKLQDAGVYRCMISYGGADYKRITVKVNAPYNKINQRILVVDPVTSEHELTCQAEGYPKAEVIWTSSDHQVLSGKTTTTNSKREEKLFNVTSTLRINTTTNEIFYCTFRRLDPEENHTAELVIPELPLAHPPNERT
Kind of test: competitive ELISA, huPD-1-His coated, 15 nM huPD-L1-Fc tracer, binder titrated. As for the experimental part:
Recombinant huPD-1-His (Acrobiosystems) in PBS (1 μg/mL) was coated overnight on microtiter plates at 4° C. The plates were washed five times after each incubation step with 100 μL PBS-0.05% T (PBS supplemented with 0.05% (v/v) Tween 20). The plates were blocked with 2% BSA (w/v) in PBS-0.1% T (PBS supplemented with 0.1% (v/v) Tween 20) for 1 h at room temperature and subsequently washed again. […] The mixtures of fusion proteins and the tracer were added to the plates and incubated for 20 min at room temperature following by five washing steps with 100 μL PBS-0.05% T. Subsequently, a 1:5000 dilution of goat-anti human IgG-Fc HRP (Jackson) was added to the wells and incubated for 1 h. After an additional wash step, fluorogenic HRP substrate (QuantaBlu, Thermo) was added to each well, and the fluorescence intensity was detected using a fluorescence microplate reader.
(An ELISA detects its analyte on a solid surface through an enzyme-linked reagent.)

For test [8], the target named is T6, huPD-L1-His (human PD-L1 with a C-terminal polyhistidine tag) (human, UniProt Q9NZQ7 19-239).
T6 construct: Bought; also called biotinylated huPD-L1-His
T6 sequence (Q9NZQ7 19-239 limits assumed): as above
As to the kind of experiment: ELISA, huPD-L1-His coated, detection anti-human IgG Fc-HRP. On the procedure:
(§6) Recombinant huPD-L1-His or cyPD-L1-His (human or cynomolgus PD-L1 with a C-terminal polyhistidine tag, R&D Systems or Sino Biologics) at the concentration of 1 μg/mL in PBS was coated overnight on microtiter plates at 4° C. After washing with PBS-0.05% T (PBS supplemented with 0.05% (v/v) Tween 20), the plates were blocked with 2% BSA (w/v) in PBS-0.1% T (PBS supplemented with 0.1% (v/v) Tween 20) for 1 h at room temperature. […] Bound molecules under study were detected by incubation with 1:5000 diluted anti-human IgG Fc-HRP (Jackson Laboratory) in PBS-0.1% T-2% BSA. After an additional wash step, fluorogenic HRP substrate (QuantaBlu, Thermo) was added to each well and the fluorescence intensity was detected using a fluorescence microplate reader.

Test [9] concerns the target T6, huPD-L1-His (human PD-L1 with a …). Kind of test: SPR (Biacore), binder captured by anti-human IgG Fc, huPD-L1-His in solution, 25 C, 1:1 model. On the procedure:
as §1, §2, §3

For test [10], the target named is T7, cyPD-L1-His (cynomolgus PD-L1 with a C-terminal polyhistidine tag) (cynomolgus).
T7 construct: Bought
As to the kind of experiment: ELISA, cyPD-L1-His coated, detection anti-human IgG Fc-HRP. On the procedure: as §6

The target in test [11] is T2, huCD137-His (human CD137 with a …). As to the kind of experiment: dual-binding ELISA, huCD137-His coated, binder titrated, detection with biotinylated huPD-L1-His.
For test [12], the target named is T6, huPD-L1-His (human PD-L1 with a …). As to the kind of experiment: dual-binding ELISA, huPD-L1-His coated, binder titrated, detection with biotinylated huCD137-His. On the procedure: Recombinant huPD-L1-His (R&D Systems) in PBS (1 μg/mL) was coated overnight on microtiter plates at 4° C. The plates were washed five times after each incubation step with 100 μL PBS-0.05% T. The plates were blocked with 2% BSA (w/v) in PBS-0.1% T for 1 h at room temperature and subsequently washed again. Different concentrations of tested fusion proteins were added to the wells and incubated for 1 h at room temperature, followed by a wash step. […] After washing, a 1:5000 dilution of ExtrAvidin-HRP (Sigma-Aldrich) in PBS-0.1% T-2% BSA was added to the wells and incubated for 1 h. After an additional wash step, fluorogenic HRP substrate (QuantaBlu, Thermo) was added to each well, and the fluorescence intensity was detected using a fluorescence microplate reader.

Test [13] concerns the target T2, huCD137-His (human CD137 with a …). As to the kind of experiment: ELISA, huCD137-His coated, detection anti-NGAL-HRP. As for the experimental part:
as §6
(§7) The same ELISA setup was also employed to determine the binding potency of fusion proteins to CD137, where huCD137-His (human CD137 with C-terminal polyhistidine tag, R&D Systems) or cyCD137-Fc (cynomolgus CD137 C-terminally fused to Fc) was instead coated on a microtiter plate. The testing agents were similarly titrated and bound agents were detected via anti-NGAL-HRP.

The target in test [14] is cyCD137-Fc (cynomolgus CD137 C-terminally fused to Fc) (cynomolgus). As to the kind of experiment: ELISA, cyCD137-Fc coated, detection anti-NGAL-HRP. On the procedure: as §6, §7

T1 sequence (Q07011 24-255): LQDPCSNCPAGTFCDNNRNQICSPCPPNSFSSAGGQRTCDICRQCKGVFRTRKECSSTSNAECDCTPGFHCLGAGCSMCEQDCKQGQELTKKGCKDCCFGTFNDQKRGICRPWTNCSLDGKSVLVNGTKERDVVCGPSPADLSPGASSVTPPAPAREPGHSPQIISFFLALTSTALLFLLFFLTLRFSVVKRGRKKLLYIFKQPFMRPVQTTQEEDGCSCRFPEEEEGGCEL
T2 sequence (Q07011 24-186 limits assumed): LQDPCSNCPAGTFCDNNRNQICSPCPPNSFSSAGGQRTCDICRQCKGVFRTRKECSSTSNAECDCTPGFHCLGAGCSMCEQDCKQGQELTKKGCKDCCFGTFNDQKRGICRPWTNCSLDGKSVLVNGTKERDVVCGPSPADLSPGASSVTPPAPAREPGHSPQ
T3 sequence (Q9NZQ7 19-290): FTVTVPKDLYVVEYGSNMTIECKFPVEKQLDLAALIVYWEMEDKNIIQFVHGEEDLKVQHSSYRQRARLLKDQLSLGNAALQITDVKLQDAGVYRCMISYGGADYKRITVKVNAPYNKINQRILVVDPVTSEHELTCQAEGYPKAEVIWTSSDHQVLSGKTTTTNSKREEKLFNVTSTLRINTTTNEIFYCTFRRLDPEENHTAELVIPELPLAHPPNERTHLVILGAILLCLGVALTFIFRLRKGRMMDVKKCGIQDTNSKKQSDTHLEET

B1: reference CD137 antibody SEQ ID NOs: 28 and 29 (antibody, human IgG4 S228P, kappa, V domains shown)
VH: QVQLQQWGAGLLKPSETLSLTCAVYGGSFSGYYWSWIRQSPEKGLEWIGEINHGGYVTYNPSLESRVTISVDTSKNQFSLKLSSVTAADTAVYYCARDYGPGNYDWYFDLWGRGTLVTVSS
VL: EIVLTQSPATLSLSPGERATLSCRASQSVSSYLAWYQQKPGQAPRLLIYDASNRATGIPARFSGSGSGTDFTLTISSLEPEDFAVYYCQQRSNWPPALTFGGGTKVEIKR
notes: also called anti-CD137 benchmark antibody
Consider B1, for which, in [1], the “EC50 [nM] With RKO cells (CD137 Bioassay, NFκB-luc2/CD137 Jurkat luminescence)” value (“EC50 [nM] With RKO cells” below) worked out at 0.814 nM. Besides, the affinity in [2], expressed as Kd, was 6.24 nM. The same molecule came in with an EC50 in [3] of 1.31 nM.

B2: PD-L1 antibody SEQ ID NOs: 86 and 87 (building block of the fusion proteins) (antibody, human IgG4 S228P, kappa, F234A L235A, V domains shown)
VH: QVQLQESGPGLVKPSETLSITCTVSGFSLSNYDISWIRQPPGKGLEWLGVIWTGGATNYNPALKSRLTISRDNSKNQVSLKMSSVTAADTAVYYCVRDSNYRYDEPFTYWGQGTLVTVSS
VL: EIVLTQSPDTLSVTPKEKVTLTCRASQSIGTNIHWFQQKPGQSPKLLIKYASESISGVPSRFSGSGSGTDFTLTINSVEAEDAATYYCQQSNSWPYTFGQGTKLEIKR
For the molecule B2, the EC50 in [4] was determined as 2.96 nM; in [5], 0.32 nM; in test [6] it was 3.55 nM; in test [8], 0.12 nM; in test [10], 0.1 nM. Also, the IC50 in [7] was 3.5 nM. In test [9], this molecule registered a Kd of 0.593 nM. Besides, the koff in [9] is 0.000649 s⁻¹. The kon in test [9] was determined as 1.09e+06 M⁻¹ s⁻¹.

B3: fusion protein SEQ ID NOs: 86 and 93 (bispecific antibody, human IgG4 S228P, kappa, F234A L235A)
heavy: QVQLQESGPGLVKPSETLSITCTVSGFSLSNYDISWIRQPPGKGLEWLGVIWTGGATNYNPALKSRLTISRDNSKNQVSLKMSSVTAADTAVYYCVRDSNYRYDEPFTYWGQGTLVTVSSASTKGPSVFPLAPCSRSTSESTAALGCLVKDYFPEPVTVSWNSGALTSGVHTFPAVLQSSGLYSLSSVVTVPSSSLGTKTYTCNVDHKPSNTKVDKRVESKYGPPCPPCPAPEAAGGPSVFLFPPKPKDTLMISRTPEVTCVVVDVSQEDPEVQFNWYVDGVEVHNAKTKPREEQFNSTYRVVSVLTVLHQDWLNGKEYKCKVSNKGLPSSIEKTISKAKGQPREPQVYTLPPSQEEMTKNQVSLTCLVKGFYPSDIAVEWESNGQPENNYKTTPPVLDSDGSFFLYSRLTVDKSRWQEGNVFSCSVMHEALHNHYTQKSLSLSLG
light: QDSTSDLIPAPPLSKVPLQQNFQDNQFHGKWYVVGQAGNIRLREDKDPIKMMATIYELKEDKSYDVTMVKFDDKKCMYDIWTFVPGSQPGEFTLGKIKSFPGHTSSLVRVVSTNYNQHAMVFFKFVFQNREEFYITLYGRTKELTSELKENFIRFSKSLGLPENHIVFPVPIDQCIDGGGGGSGGGGSGGGGSEIVLTQSPDTLSVTPKEKVTLTCRASQSIGTNIHWFQQKPGQSPKLLIKYASESISGVPSRFSGSGSGTDFTLTINSVEAEDAATYYCQQSNSWPYTFGQGTKLEIKRTVAAPSVFIFPPSDEQLKSGTASVVCLLNNFYPREAKVQWKVDNALQSGNSQESVTEQDSKDSTYSLSSTLTLSKADYEKHKVYACEVTHQGLSSPVTKSFNRGEC
notes: Antibody-lipocalin mutein fusion, IgG4 S228P backbone; Bivalent to CD137
Take B3: in test [1], the “EC50 [nM] With RKO cells” value is 0.264 nM. Besides, the Kd in test [2] worked out at 3.55 nM; in test [9], 1.38 nM. For the same molecule, the figures for the koff in test [2] and in [9] were 0.00013 s⁻¹ and 0.000754 s⁻¹, respectively. Also, the results for the on-rate (kon) in [2] and in test [9] were 36800 M⁻¹ s⁻¹ and 546000 M⁻¹ s⁻¹, respectively. For the same molecule, the EC50 is 4.63 nM in test [4]; 1.38 nM in [5]; 2.03 nM in [6]; 6.7 nM in test [11]; 0.74 nM in test [12]; 12.7 nM in test [3]. Moreover, the concentration giving a half-maximal response (EC50) in test [8] turned out to be 0.19 nM; in [13] it was 0.35 nM; in test [14], 8.1 nM; in test [10], 0.17 nM. Further, the IC50 in [7] turned out to be 3.2 nM.

B4: fusion protein SEQ ID NOs: 92 and 87 (bispecific antibody, human IgG4 S228P, kappa, F234A L235A)
heavy: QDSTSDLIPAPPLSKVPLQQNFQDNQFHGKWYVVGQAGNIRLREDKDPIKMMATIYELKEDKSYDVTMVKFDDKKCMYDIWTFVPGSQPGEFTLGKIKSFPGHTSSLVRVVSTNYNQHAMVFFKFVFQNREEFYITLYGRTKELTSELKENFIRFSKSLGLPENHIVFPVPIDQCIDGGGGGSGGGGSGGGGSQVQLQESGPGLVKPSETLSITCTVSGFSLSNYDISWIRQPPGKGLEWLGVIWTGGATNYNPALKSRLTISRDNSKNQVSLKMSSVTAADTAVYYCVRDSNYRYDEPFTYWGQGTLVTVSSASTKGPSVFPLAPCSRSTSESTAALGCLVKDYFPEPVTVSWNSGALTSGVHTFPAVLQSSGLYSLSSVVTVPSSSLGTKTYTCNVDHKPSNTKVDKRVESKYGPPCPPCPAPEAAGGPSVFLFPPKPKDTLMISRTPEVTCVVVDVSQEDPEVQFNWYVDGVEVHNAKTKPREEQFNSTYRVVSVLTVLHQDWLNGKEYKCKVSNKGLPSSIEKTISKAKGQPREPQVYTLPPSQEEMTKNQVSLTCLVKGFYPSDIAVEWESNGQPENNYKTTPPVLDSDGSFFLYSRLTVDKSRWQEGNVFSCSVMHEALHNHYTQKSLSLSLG
light: EIVLTQSPDTLSVTPKEKVTLTCRASQSIGTNIHWFQQKPGQSPKLLIKYASESISGVPSRFSGSGSGTDFTLTINSVEAEDAATYYCQQSNSWPYTFGQGTKLEIKRTVAAPSVFIFPPSDEQLKSGTASVVCLLNNFYPREAKVQWKVDNALQSGNSQESVTEQDSKDSTYSLSSTLTLSKADYEKHKVYACEVTHQGLSSPVTKSFNRGEC
notes: as for B3
As to B4, the “EC50 [nM] With RKO cells” value in test [1] is 0.181 nM. The values for the Kd in test [2] and in test [9] were 5.97 nM and 1.02 nM, respectively. Moreover, the koff in test [2] came to 0.000208 s⁻¹; in [9], 0.000803 s⁻¹. Also, the on-rate (kon) is 34800 M⁻¹ s⁻¹ in test [2] and 787000 M⁻¹ s⁻¹ in [9]. The EC50 is 2.95 nM in test [4]; 1 nM in [5]; 2.03 nM in test [6]; 7.2 nM in [11]; 1.2 nM in [12]; 11.9 nM in [3]. Besides, the 50% effective concentration (EC50) in test [8] was 0.16 nM; in test [13], 0.41 nM; in test [14], 9.8 nM; in test [10], 0.15 nM. Besides, the IC50 in [7] is 3.4 nM.
